# Data taken from publication PMC10992996, “Human CRB1 and CRB2 form homo- and heteromeric protein complexes in the retina” (Life Science Alliance, 2024).
# T1: CRB1-FLAG p.C1174G (human, UniProt P82279 26-1406, p.C1174G)
# T1 construct: Crumbs homolog 1, canonical form, human, cDNA NM_202153 as printed, with a patient missense mutation; Made by site-directed mutagenesis of m1; also called CRB1 p.C1174G; CRB1-FLAG MT; source: HEK293T, transfected, in lysate; not shown: Strep-Strep-FLAG, N-terminal, kept
# T1 sequence (looked up): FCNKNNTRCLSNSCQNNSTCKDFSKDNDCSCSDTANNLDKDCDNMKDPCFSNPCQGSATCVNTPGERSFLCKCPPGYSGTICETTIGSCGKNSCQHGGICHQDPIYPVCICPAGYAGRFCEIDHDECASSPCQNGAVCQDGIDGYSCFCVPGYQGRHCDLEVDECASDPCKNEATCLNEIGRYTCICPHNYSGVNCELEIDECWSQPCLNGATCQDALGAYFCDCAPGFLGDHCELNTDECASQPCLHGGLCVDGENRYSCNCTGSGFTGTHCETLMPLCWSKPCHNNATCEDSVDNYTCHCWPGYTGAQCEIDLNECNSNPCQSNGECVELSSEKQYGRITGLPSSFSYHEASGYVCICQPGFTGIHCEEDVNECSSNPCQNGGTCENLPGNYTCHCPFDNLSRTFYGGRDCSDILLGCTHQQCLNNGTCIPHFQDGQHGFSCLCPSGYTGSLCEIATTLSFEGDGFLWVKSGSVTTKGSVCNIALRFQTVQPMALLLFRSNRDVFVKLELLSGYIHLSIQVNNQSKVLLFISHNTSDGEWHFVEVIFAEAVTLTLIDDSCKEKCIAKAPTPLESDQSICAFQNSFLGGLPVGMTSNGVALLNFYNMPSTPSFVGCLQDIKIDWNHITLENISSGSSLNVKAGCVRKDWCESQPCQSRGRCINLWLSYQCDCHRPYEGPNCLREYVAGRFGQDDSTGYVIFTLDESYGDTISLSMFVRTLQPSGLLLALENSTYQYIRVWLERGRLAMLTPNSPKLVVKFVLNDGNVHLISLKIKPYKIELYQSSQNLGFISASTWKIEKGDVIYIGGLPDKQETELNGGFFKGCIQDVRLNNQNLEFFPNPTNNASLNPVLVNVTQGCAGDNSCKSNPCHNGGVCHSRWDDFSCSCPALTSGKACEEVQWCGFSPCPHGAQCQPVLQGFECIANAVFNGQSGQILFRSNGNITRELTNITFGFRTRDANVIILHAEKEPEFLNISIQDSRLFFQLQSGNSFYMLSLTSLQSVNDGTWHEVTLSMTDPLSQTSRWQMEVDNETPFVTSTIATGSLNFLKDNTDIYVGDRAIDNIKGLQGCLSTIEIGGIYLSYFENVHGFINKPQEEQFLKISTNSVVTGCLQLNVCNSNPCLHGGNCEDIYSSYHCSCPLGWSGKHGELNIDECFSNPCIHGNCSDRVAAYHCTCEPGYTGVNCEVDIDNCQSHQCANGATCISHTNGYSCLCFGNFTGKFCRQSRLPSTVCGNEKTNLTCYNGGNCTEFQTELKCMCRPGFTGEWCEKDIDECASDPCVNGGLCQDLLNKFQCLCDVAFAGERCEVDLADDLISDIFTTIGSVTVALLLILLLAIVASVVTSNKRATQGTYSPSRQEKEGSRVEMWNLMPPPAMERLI
# Biological target: T1, CRB1-FLAG p.C1174G
# Test: co-IP; HEK293T cells co-transfected pairwise with a FLAG and an HA construct, 48 h; lysis in TBS (30 mM Tris-HCl pH 7.4, 150 mM NaCl) with 0.5% Nonidet P40; FLAG-IP on ANTI-FLAG M2 Affinity Gel 60-90 min at 4°C, elution with FLAG peptide; Western blot with HA and FLAG antibodies; for mutants HA/FLAG signal in eluates relative to WT, three biological replicates
# Details: partners not purified
binder,measurement,value
"Human canonical CRB2 (Crumbs homolog 2) (natural protein, Crumbs homolog 2, human, cDNA NM_173689; Stood as bait (FLAG copy) and as prey (HA copy) in the pairwise co-IP matrix; each copy carries only one of the two tags; The FLAG copy was the bait of the mass spectrometry pull-downs; also called CRB2-FLAG; CRB2-HA; source: HEK293T, transfected, in lysate (co-IP); HEK293T, transfected, FLAG-IP on beads, washed and purified with 0.01% SDS (retina …)) not shown",percent reduction of the interaction relative to CRB1 WT,17%
